This is an account of results in the DeepSol protein solubility set.

The data set can be described thus: soluble on expression in E. coli; label from the status in PepcDB or PDB records.
“MSLNAIHRILMTTDGSITAIIEAVTQKKVEVETLEQKIIRADRELAELLEIDEGDEVNYRVVYLRANGEIYAKAISFTPLKRLENSFREDLMRADIPIGKIMRKHNIEARREIRWSRVEEADLALAKELGIADRRVISRNYNIIHRGKVLINITEFFPMERFRIEGYHHHHH”: the “soluble on expression in E. coli” value is recorded as “soluble”.
Take “MGSDKIHHHHHHMIRFHIQADSDIPASTQLYNQIHFAIASRQYPPGHKLPSTRQLAMQTGLHRNTISKVYRLLEEDGVVEAQAGSGIYVRGGNDPRETAKSQRLRKQYPDIDQQIRDHIDTLLQQGCSLAEIRELFLAEVDWRLRCSASVLVTAPLQDLGAAELMYRELSQALGVPVEVVPLEELGAILKQKDSGTVVTSHYFFQDAEAITASLGARTIALDLYDYREELSFLSQQKEGSCIGIVSISPGILRAAEIIIHSLRGEALLIMSCQPNDQTKLEAMLRSASVIICDQSSIDNVKQRVSAIRDDLIRLPRLLCSKSYISEASIALLKRELGLN”: the “soluble on expression in E. coli” value is recorded as “not soluble”.
For the sequence “MITSDSHMHTRFSTDSDADIRDMIESALKKGLQSICITDHIDKDYPFHEDTGAEAFLVDLDEYFPKLAEWKEAYAEKIQIRRGIELGLQPHLAGFYEELTNQYPFDFVIGSVHVVHGMDPYYGEIFEGRSDEEVYKETFLATLENLDAVSSFDVLGHLDYVVRYGKCQARQYSYKKYAQEIDEILKKVIAMGKGIELNTAGWKYGLAFCHPHPEILCRYKELGGEIITVGSDAHKPEHVAYDFQKAADVLKACGFKYYTEFQDRKPIFKQLL”, the “soluble on expression in E. coli” value is “soluble”.
Turning to “ILTAGPTVDGRNIEQSVIDDIAETYDPKRYNARINEEHWSWSDKFGSVLSVEKRDDQLFAVLKPNSLLLSTIEKGQLLHTSCEIRANFQGTGKSYLTGLALTDEPASVGTTEMHLSAKEKNKDKSYFSSGATISKDDLSNNIDVDVQEDRKFLSRLKQLLSLGEPDKTQSLEESEDMNEELKELLQAQTAAVTALTAQVTSLAATLNKEESAPVEEENNETELAEKVDALSTKLDDVVTKLSNITDEPNRNLAGVDGDTEY”, the “soluble on expression in E. coli” value is recorded as “not soluble”.
The entry for “RGRGPEAAAQEEAEEVGRSGPGRRAAQRRSPGLAMLLASAVVVWEWLNEHGRWRPYSPAVSHHIEAVVRAGPRAGGSVVLGQVDSRLAPYIIDLQSMNQFRQDTGTLRPVRRNYYDPSSAPGKGVVWEWENDNGSWTPYDMEVGITIQHAYEKQHPWIDLTSIGFSYVIDFNTMGQINRQTQRQRRVRRRLDLIYPMVTGTLPKAQSWPVSPGPATSPPMSPCSCPQCVLVMSVKAAVVNGSTGPLQLPVTRKNMPPPGVVKLPPLPGSGAKPLDSTGTIRGPLKTAPSQVIRRQASSMPTGTTMGSPASPPGPNSKTGRVALATLNRTNLQRLAIAQSRVLIASGVPTVPVKNLNGSSPVNPALAGITGILMSAAGLPVCLTRPPKLVLHPPPVSKSEIKSIPGVSNTSRKTTKKQAKKGKTPEEVLKKYLQKVRHPPDEDCTICMERLTAPSGYKGPQPTVKPDLVGKLSRCGHVYHIYCLVAMYNNGNKDGSLQCPTCKTIYGVKTGTQPPGKMEYHLIPHSLPGHPDCKTIRIIYSIPPGIQGPEHPNPGKSFSARGFPRHCYLPDSEKGRKVLKLLLVAWDRRLIFAIGTSSTTGESDTVIWNEVHHKTEFGSNLTGHGYPDANYLDNVLAELAAQGISEDSTAQEKD” is “soluble”.
For the sequence “MGSDKIHHHHHHVLETFETVAKAVADPNRVRILKLLESGELCVCQITAVLDLAAATVSKHLSLLKAAGLLQQRREGKWAYYRLADRALNPYAPAFLGLIGATLADDPTLTEDARILSKVNALPLQVLCDQGRAALDLTRPTSPAPSCCGTPMMTETSFNVLFLCTGNSARSILAESILNREGAGKFRAYSAGSHPKGQIDPTVLALLKKTNHPTETLRSKSWDEFAAPGAPTLDFVFTVCDNAAGEVCPIWPGQPMTAHWGVPDPAGFVGSEAEKAAFCGEVMRLLRTRISIFAALPIASLDRLSLQRRLKEIGKVALESRETRESGVL”, the “soluble on expression in E. coli” value is recorded as “not soluble”.
The entry for “SKIKDAKKPSFPWFGMDIGGTLVKLSYFEPIDITAEEEQEEVESLKSIRKYLTSNVAYGSTGIRDVHLELKDLTLFGRRGNLHFIRFPTQDLPTFIQMGRDKNFSTLQTVLCATGGGAYKFEKDFRTIGNLHLHKLDELDCLVKGLLYIDSVSFNGQAECYYFANASEPERCQKMPFNLDDPYPLLVVNIGSGVSILAVHSKDNYKRVTGTSLGGGTFLGLCSLLTGCESFEEALEMASKGDSTQADKLVRDIYGGDYERFGLPGWAVASSFGNMIYKEKRESVSKEDLARATLVTITNNIGSVARMCAVNEKINRVVFVGNFLRVNTLSMKLLAYALDYWSKGQLKALFLEHEGYFGAVGALLGLPNFS” is “soluble”; for “MDILLTLLDDKTSVASDWRILGIISLRGSTPRLAILLQVVQWAAFYCWRNYMSPYKDKRWRSKRDTALRRDKYECRNCKRFGITTTATVVHHVWFLRDYPKWWLCLWNLISLCEKCHNKMHNRDSDIPTELGEYWQDKIKPPTSATKKYFLEHHHHHH” it is “not soluble”.
As to “MEHPNLEENVGEQDFASNDRFFNSYNIVPRRILQANYDSSLRQMEGYQEEIETDNPINESRGDEAEELENEGCDDRDRCTSRNSIDSEIYENSDEEVYDESMYESEEEYADSPFIIDKMEECLQNHQIGELGSRVMEGLETGTLADVQLEEFCRSRVKPEVTPREFYEELASSGNGDWKKFSMGQFVLSKMKSSKDTAWANTEATVNSLAANLSKANTVGSIVKRVISREYAIEEKDGFPRYNLTNFYNNTTLQGQGAVAQLTSVYVGFLKNLFKPSFKIWLFTYRPSSAYNFDKHFVEYPASVIDTIFGRKLDAFSMEVLGVYLPEDLLVGGCYNVSDASETFLQSLGENASKEVERRRKFRGPARKTCIGAMAAAMKSLRQHHYNAARDTVSYCSARSDCKEHLTWHQLRFYRAHSGKTKEECDLARPDDVMAFCRERAMPRYSLSPNRDATS”, the “soluble on expression in E. coli” value was “soluble”.
With “MQVLTTSRKPGRKTRRFAKVLARFFNWKYVNRGKLSLEDLAGIAERFWIISEVKGNPAILNLYERGEKTLEVSFTLSNVNKIKMDDSPAVFKGKAPIDPLVFGAIPQTKAGLKLTRKVEFRKKVVVKGDEWLFFYDDEMLFKLRILKISRSSR”, the “soluble on expression in E. coli” value is listed as “not soluble”.
For “MAHHHHHHMSSTASPNAALLAEINDLKVKLAEKEALLQPEGVVSKKSKKKSQANMIEKEPVQGCRDFPPEDMRVRRHLFGVFHETARKFGFEEYDAPVLESEELYIRKAGEEITDQMFNFVTKGGHRVTLRPEMTPSLVRLQLAKGRSLLLPAKWYSIPQCWRYEAISRGRRREHYQWNMDIVGVKSVAAEVELVCAACAAMESLGLTAQDVGVKVNSRKLLQCALAGAGVPDSLFAPVCVIVDKMEKLPEEQIRAELEDLALDGQQADDIIRTLSLRSVDDFDKNLFDKNGALSELAEFFSQMQMYGYGDWIQFDASVVRGLAYYTGIVFEAFDRSGEFRAIYGGGRYDNLFTLYGSPQPISCVGFGFGDCVIIELLKKKKLINSLPHKVDDVVIPFNESQRGTALKVLKQLRDKGRSADIIMDSKKVAQTFSYADRIGADRAVLIAPDETEKGMARVKMLREGQRGEDDRGDLVPFEDL”, the “soluble on expression in E. coli” value was “soluble”.
In the case of “GIQVRDCMIPRNEMIACELQTDIEVLKTTFIDTGLSKIIIYRQNIDDVVGYIHSSEMFRGQDWQKRINTTVFVPESMYANKLMRLLMQRKKSIAIVIDELGGTAGMVTLEDLVEEIFGDIEDEH”, the “soluble on expression in E. coli” value was “not soluble”.
Turning to “MGSDKIHHHHHHMPRYQHIARQLKTAIEQGELAPGTRLPSSRTWAQELGVSRATVENAYGELVAQGWLERRGQAGTFVSNALRFETAPPIPAVFAGESPEPKPFQMGLPALDLFPREKWARVMGRRLRTQTCFDLALGDVCGEAILRQAIVDYLRVSRSIECLPEQVFITSGYADSMRLILRTLSVPGDSMWVEDPGFPLIRPVITQEGITLAPIPVDADGLNVAAGMRDCPQGRFALVTPAHQSPLGVALSLTRRRQLLAWAANVQAWIIEDDYDSEFRYHGKPLPPLKSLDAPQRVIYAGTFSKSLFPALRTAWLVVPIKQIEHFRQQASLMPCSVPLLWQHTLADFIRDGHFWRHLKKMRQHYAQRRLWIEEALAEQGFVVTLQKGGIQLVIEVEGDDKAQVAKANQAGLAVQALSRWRVVSSGKGGILLSFTNITSAGMAKQVACQLRQAIQ”, the “soluble on expression in E. coli” value is “not soluble”.
The same measure for “MENGCGKMESFSPQALEMIRSLGTTHIWYIGMLEQATQTNYSDAGILPCHPEIVKGKAGSPYAVRDYYDVSPELATNIPNRMAEFHDLIERTHRAGMGVIMDFVPNHVAREYRSDVKPSGTKDLGEEDDPLVAFSPNNNFYYLPGKCLELDFGERSRTMMPYHEEPARATGNDRFSSHIDKEDWYETVKLNYGIDYLNGGSKHFDPLPDTWIRMRDILLFWASKGIDGFRCDMAEMVPVKFWEWAIPQIRERHSVLFIAEIYRPELYESYLQAGFDYLYDKVGMYDCLRTVICGYGSASDISRVVRQTERFADNMLYFLENHDEQRIASDFFAEDARKALPAVTIAATIGRNPFMLYFAQELGERGMDAEGFSGKDGRTTIFDYWSLDKMQRRINDGRYDTTMLSEEERLLLQSYTRLLHDVCALPSVIQGSFYDLGYANQNNPYFRPNREFAFLRHTTDEILLVAANFAPHEAEIRVIIPEHAFQTMQIKDNAAFLLTDMLSGENSIGCLTQYAPYPLHLPAYGYALHRFRPL”: “not soluble”; for “MGSDKIHHHHHHMPAKIIDKIIEEIDKLPSPNVVVQRIIAVCSKPDASSTEVANTLMMDASLSARVLKLANSAYYGVPRKITTLSEAVMILGFKTVRNLALSVFTYDMVFKNSSSGIDREKLWEHFIASAIASETVAETMGYPLKEEIFIAGLLHDLGKVVYDLLFSDILETEAKIAQKTKKNLIDIEEELGIPPHSEVGAKLLRKWNFPDLLVLSAEFHHNVEGNPNELFVNQVSMVHIGDVIANLMMKGASLSWGDPKLSPFALNVLKVKPKTFLRILDKSKEKYNKAQEFLQID”: “not soluble”; for “MGSDKIHHHHHHMNSGDIPATATFVNGTVNEKAATPRIPHQRPEGCPVSITRDSRAVALLWSFMNNDSSSRIAARLREWIATAAPGARLPSTRSLVAGYQASPVTVQKALQSLTAQGLIESRPGVGTFVRAVRTARPSDYGWQTAALRSPLAPLPSASTTMRDVANNAIAFHSGYPDRELLPERLVRAALTRAARGDAALSRPPAAGLPELQSWFARELGASTPAGTTPPNPSDVVVLPGSQSGLSSIFSALAGRGQPLLMESPTYWGAILAAAQAGVRVVPVPSGPDGPDPAELARAFDETGARLFYAQPNYANPTGAQWAPGRGEEVLEVVRGKGAFLVEDDWAHDFGITTSPVPVASRDDSGHVVYLRSLTKSVSPAIRIAAVIARGPARERILADRAAESMYVSGLLQAAALDVVTQPGWQTHLRSLRHQLQARRDLLVTSIREHAPQAHIEQVPKGGLNLWARLPDATDLDRLTRDCESRGVIIAAGREWFPAEPAGAFIRLNYSGSNPGAFPEGARIIGESIERNSS”: “not soluble”.
Take “MSQPPLLSGPGGRLLGAALLIGLLAGCGSVSTGNAGSGTVGTSTTSRADVMTFQPSSLPVSYVGETYNVQVGVTGGVGPYGYRLTAGTLPPGLKFAGGALSGTPTKAGSYSFAIQATDANLSTRVQEYTMNVDALPPLALKPTLPPGEIRGETRIPVTIQAPRAVRAARLSWDLGKDVQVTRVQPADAGSVVFWQQRGSVLTVDLGFRTVPRPDARIALITVKPAKAVTLKADALGYEARDGSGKMLVDKKRPGSEPVKPAEQPGDPKVDPKAADQKATDQKATDPKTVDPKTVTPADTVEGGPLPSPALPTPSLPPTLPPVTTPPANTPPVPTPTPPANQPAPAPAPQPAPAPQPTPPSGTGGALEHHHHHH”: the “soluble on expression in E. coli” value is on record as “soluble”.
